# In publication PMC6821365:
# T1: yedK E105A (Escherichia coli (gene from BL21 …, UniProt P76318 2-222, E105A))
# T1 sequence: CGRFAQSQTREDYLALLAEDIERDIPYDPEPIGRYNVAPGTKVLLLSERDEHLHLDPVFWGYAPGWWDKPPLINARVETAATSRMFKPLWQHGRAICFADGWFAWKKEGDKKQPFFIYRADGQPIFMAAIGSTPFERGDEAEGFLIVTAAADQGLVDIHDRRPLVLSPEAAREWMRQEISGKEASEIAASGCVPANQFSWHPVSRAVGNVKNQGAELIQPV
# T2: yedK T80A (Escherichia coli (gene from BL21 …, UniProt P76318 2-222, T80A))
# T2 sequence: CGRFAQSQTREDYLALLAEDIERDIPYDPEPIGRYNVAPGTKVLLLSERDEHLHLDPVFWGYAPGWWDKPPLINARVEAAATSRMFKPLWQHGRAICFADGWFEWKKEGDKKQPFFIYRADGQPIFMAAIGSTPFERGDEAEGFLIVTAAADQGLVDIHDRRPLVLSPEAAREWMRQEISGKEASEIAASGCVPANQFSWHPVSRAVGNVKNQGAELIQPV
# T3: yedK P40G (Escherichia coli (gene from BL21 …, UniProt P76318 2-222, P40G))
# T3 sequence: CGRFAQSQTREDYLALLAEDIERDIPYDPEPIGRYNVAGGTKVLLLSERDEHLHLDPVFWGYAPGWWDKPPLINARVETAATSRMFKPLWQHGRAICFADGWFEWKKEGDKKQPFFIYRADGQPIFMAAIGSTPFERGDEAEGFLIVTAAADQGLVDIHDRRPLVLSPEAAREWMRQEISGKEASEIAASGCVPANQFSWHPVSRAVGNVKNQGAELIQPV
# T4: yedK R162A (Escherichia coli (gene from BL21 …, UniProt P76318 2-222, R162A))
# T4 sequence: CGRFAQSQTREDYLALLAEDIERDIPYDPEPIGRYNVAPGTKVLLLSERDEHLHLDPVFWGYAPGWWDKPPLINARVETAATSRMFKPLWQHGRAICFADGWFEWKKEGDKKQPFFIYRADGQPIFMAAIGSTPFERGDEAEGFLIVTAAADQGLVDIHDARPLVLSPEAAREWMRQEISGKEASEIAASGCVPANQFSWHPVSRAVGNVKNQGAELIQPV
# T5: yedK H160A (Escherichia coli (gene from BL21 …, UniProt P76318 2-222, H160A))
# T5 sequence: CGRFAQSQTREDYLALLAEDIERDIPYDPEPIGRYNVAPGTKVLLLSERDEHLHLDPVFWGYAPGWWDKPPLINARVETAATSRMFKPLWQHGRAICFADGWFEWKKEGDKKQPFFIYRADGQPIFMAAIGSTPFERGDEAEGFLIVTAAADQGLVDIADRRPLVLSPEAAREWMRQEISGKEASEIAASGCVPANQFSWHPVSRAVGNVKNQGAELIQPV
# T6: yedK K70A (Escherichia coli (gene from BL21 …, UniProt P76318 2-222, K70A))
# T6 sequence: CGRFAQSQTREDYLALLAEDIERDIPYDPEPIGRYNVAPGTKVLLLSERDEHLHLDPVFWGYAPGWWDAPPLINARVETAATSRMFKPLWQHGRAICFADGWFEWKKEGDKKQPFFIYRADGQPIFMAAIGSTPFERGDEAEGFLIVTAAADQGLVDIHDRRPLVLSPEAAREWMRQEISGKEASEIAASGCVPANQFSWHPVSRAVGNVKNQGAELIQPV
# T7: yedK K113A (Escherichia coli (gene from BL21 …, UniProt P76318 2-222, K113A))
# T7 sequence: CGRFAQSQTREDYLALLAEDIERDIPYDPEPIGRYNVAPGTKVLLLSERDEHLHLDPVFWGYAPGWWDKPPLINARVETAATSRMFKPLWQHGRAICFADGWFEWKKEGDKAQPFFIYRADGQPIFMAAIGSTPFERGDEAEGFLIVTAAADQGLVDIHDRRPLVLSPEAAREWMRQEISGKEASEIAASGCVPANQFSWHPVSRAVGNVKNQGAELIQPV
# T8: yedK R4A (Escherichia coli (gene from BL21 …, UniProt P76318 2-222, R4A))
# T8 sequence: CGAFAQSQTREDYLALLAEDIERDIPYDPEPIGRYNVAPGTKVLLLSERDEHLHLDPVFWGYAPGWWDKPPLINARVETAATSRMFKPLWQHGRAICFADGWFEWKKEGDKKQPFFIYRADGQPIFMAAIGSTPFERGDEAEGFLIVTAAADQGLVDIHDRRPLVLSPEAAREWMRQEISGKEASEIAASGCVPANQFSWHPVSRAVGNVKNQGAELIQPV
# Experiments:
# Experiment in all cases: ITC
# yedK E105A = target: T1, yedK E105A
# yedK T80A = target: T2, yedK T80A
# yedK P40G = target: T3, yedK P40G
# yedK R162A = target: T4, yedK R162A
# yedK H160A = target: T5, yedK H160A
# yedK K70A = target: T6, yedK K70A
# yedK K113A = target: T7, yedK K113A
# yedK R4A = target: T8, yedK R4A
binder,measurement,setting,value
CGGTCGATTC (ssDNA) [ssDNA],Kd,yedK E105A,0.12 µM
same,Kd,yedK T80A,12.6 µM
same,Kd,yedK P40G,10.8 µM
same,binding result,yedK R162A,no binding
same,Kd,yedK H160A,1.4 µM
same,Kd,yedK K70A,4 µM
same,Kd,yedK K113A,2.1 µM
same,Kd,yedK R4A,34.6 µM
